Consider four compounds from paper PMC12987686 (RSC pharmaceutics, 2025).

Peptide text beside a SMILES is read from it.

The conditions of data set [1]: cited from earlier work.
Data set [2] in a line: in vivo. Further details: species or system mouse. The settings on record: CD1, mouse, iv, total radioactivity.
Another data set has as its system healthy CD1 mice. Nature of the data set: in vivo. Further details: species or system mouse. Conditions: mouse.
The test system of data set [3] is CD1 mice with myocardial infarction. The settings on record: mouse, in vivo.
The nature of data set [4]: in vivo. The settings on record: CD1, mouse, iv, total radioactivity.
The subject of data set [5] is CD1 mice with myocardial infarction. Kind of data set: in vivo. Also on record: species or system mouse. Conditions: mouse.
Data set [6] is described as follows: in vivo. Further details: species or system mouse. Conditions: CD1, mouse, iv, total radioactivity. The source holds these as a separate data set.
Data set [7] can be described thus: Stability in the final formulation by analytical rad-HPLC. The data set is classed as physicochemical. The settings on record: final formulation 10/30/60 v/v/v ethanol/1.0 M sodium acetate/saline, room temperature, mean ± SD, n = 4.

As to `CC(C)(C)n1ncc(OCc2ccc(COCC[18F])cc2)c(Cl)c1=O` [[^18F]F-flurpiridaz], the first-pass extraction fraction in data set [1] is 94%.

With `CC(C)C[C@H](NC(=O)[C@H](Cc1c[nH]cn1)NC(=O)[C@H](Cc1c[nH]c2ccccc12)NC(=O)[C@@H]1CCCN1C(=O)[C@H](C)NC(=O)CN1CCN(CC(=O)O)CCN(CC(=O)O)CC1)C(=O)N[C@@H](CO)C(=O)N[C@@H](CO)C(=O)N[C@@H](CCC(N)=O)C(=O)N[C@@H](Cc1ccc(O)cc1)C(=O)N[C@@H](CO)C(=O)N[C@@H](CCCNC(=N)N)C(=O)N[C@H](C(=O)O)[C@@H](C)O` [[^68Ga]Ga-NOTA-CTP, metal not drawn] (HELM PEPTIDE1{[O=C(O)CN1CCN(CC(=O)O)CCN(CC(=O)[*:2])CC1].A.P.W.H.L.S.S.Q.Y.S.R.T}$$$$V2.0; N-terminus and C-terminus assumed), the SUV at 1 h in the data set “in vivo [2]” (2.29 MBq, SUV heart) is 0.04 ± 0.04 SUV; in “in vivo [2]” (2.29 MBq, SUV kidneys) it was 0.92 ± 0.68 SUV; in the data set “in vivo [2]” (2.29 MBq, SUV liver), 0.69 ± 0.32 SUV; in the data set “in vivo [2]” (2.29 MBq, SUV muscle), 0.18 ± 0.13 SUV; in “in vivo [2]” (2.29 MBq, SUV urinary bladder) it was 10.6 ± 6.1 SUV. Also, the SUV at 2 h worked out at 0.02 ± 0.01 SUV in “in vivo [2]” (2.29 MBq, SUV heart); 0.1 SUV in the data set “in vivo [2]” (2.29 MBq, SUV kidneys); 0.14 SUV in “in vivo [2]” (2.29 MBq, SUV liver); 0.19 ± 0.18 SUV in “in vivo [2]” (2.29 MBq, SUV muscle); 9.02 ± 8.59 SUV in the data set “in vivo [2]” (SUV urinary bladder); 2.36 ± 2.24 SUV in the data set “in vivo [4]” (SUV Cecum). Moreover, the SUV at 2 h in the data set “in vivo [4]” (SUV Heart) worked out at 0.02 ± 0.006 SUV; in the data set “in vivo [4]” (SUV Lung), 0.04 ± 0.02 SUV; in the data set “in vivo [4]” (SUV Pancreas), 0.05 ± 0.06 SUV; in the data set “in vivo [6]” (2.29 MBq, SUV heart) it was 0.03 ± 0.02 SUV; in “in vivo [6]” (SUV Cecum), 2.28 ± 3.64 SUV; in the data set “in vivo [6]” (SUV Lung) it was 0.04 ± 0.04 SUV. Further, the SUV at 2 h in the data set “in vivo [6]” (SUV Pancreas) was determined as 0.05 ± 0.04 SUV. Further, the SUV was found to be 2.64 ± 0.89 SUV in the data set “in vivo [2]” (2.29 MBq, SUV kidneys); 1.42 ± 0.49 SUV in the data set “in vivo [2]” (2.29 MBq, SUV liver); 0.36 ± 0.12 SUV in the data set “in vivo [2]” (2.29 MBq, SUV muscle); 7.51 ± 3.49 SUV in the data set “in vivo [2]” (2.29 MBq, SUV urinary bladder). The “SUV in left ventricle (LV) vs right ventricle (RV)” value with healthy CD1 mice is on record as “SUV in LV was lower than the RV”. Further, the “time of clearance from the blood” value (with healthy CD1 mice; in data set [3]) was at most 30 min in each case. Moreover, the “SUV Heart” value in data set [5] came out at 0.03 ± 0.02. The “radiochemical purity in the formulation” value is 98.78 ± 1.08% in data set [7] (0 min post-synthesis) and 92.52 ± 3.66% in data set [7] (2 h post-synthesis).

Turning to `[15OH2]` [^15O-water], the first-pass extraction fraction in data set [1] is given as ~ 100%.

For `[82Rb]` [^82Rb], the first-pass extraction fraction in data set [1] is ~ 65%.
